Common to all, as to settings: remark: other sources report otherwise
Assay [1] has as its target recombinant homotrimeric HA A/Hong Kong/156/97 H5N1 (Influenza A virus A/Hong Kong/156/97 (H5N1)). The assay can be described thus: protein microarray, purified IgG, trimeric HA.
Assay [2] deals with recombinant homotrimeric HA A/Indonesia/5/05 H5N1 (Influenza A virus A/Indonesia/5/2005(H5N1)). The assay can be described thus: protein microarray, purified IgG, trimeric HA.
The target in assay [3] is recombinant homotrimeric HA A/Japan/305/57 H2N2 (Influenza A virus A/Japan/305/1957(H2N2)). The assay can be described thus: protein microarray, purified IgG, trimeric HA.
For assay [4], the target named is recombinant homotrimeric HA A/California/4/09 H1N1 (Influenza A virus A/California/04/2009(H1N1)). The assay can be described thus: protein microarray, purified IgG, trimeric HA.
Assay [5] deals with recombinant homotrimeric HA A/South Carolina/1/18 H1N1 (Influenza A virus A/South Carolina/1/18 (H1N1)). The assay can be described thus: protein microarray, purified IgG, trimeric HA.
The target in assay [6] is recombinant homotrimeric HA A/Hong Kong/1073/99 H9N2 (Influenza A virus A/Hong Kong/1073/99 (H9N2)). The assay can be described thus: protein microarray, purified IgG, trimeric HA.
Assay [7] concerns the target recombinant homotrimeric HA A/Anhui/1/05 H5N1 (Influenza A virus A/Anhui/1/2005(H5N1)). The assay can be described thus: protein microarray, purified IgG, trimeric HA.
In assay [8] the target is recombinant homotrimeric HA A/Netherlands/219/03 H7N7 (Influenza A virus A/Netherlands/219/03(H7N7)). The assay can be described thus: protein microarray, purified IgG, trimeric HA.
Assay [9] addresses recombinant homotrimeric HA A/Hong Kong/2108/03 H9N2 (Influenza A virus A/HK/2108/2003(H9N2)). The assay can be described thus: protein microarray, purified IgG, trimeric HA.
Assay [10] deals with recombinant homotrimeric HA A/chicken/Vietnam/NCVD-016/08 H5N1 (Influenza A virus A/chicken/Vietnam/NCVD-016/2008(H5N1)). The assay can be described thus: protein microarray, purified IgG, trimeric HA.
Assay [11] addresses recombinant homotrimeric HA A/northern shoveler/California/HKWF115/07 H6N4 (Influenza A virus A/northern shoveler/California/HKWF115/2007(H6N1)). The assay can be described thus: protein microarray, purified IgG, trimeric HA.
Assay [12] addresses recombinant homotrimeric HA A/Vietnam/1203/04 H5N1 (Influenza A virus A/VietNam/1203/2004(H5N1)). The assay can be described thus: protein microarray, purified IgG, trimeric HA.
The target in assay [13] is recombinant homotrimeric HA A/Egypt/3300-NAMRU3/08 H5N1 (Influenza A virus A/Egypt/3300-NAMRU3/2008(H5N1)). The assay can be described thus: protein microarray, purified IgG, trimeric HA.
In assay [14] the target is recombinant homotrimeric HA A/Solomon Islands/3/06 H1N1 (Influenza A virus A/Solomon Islands/3/2006(H1N1)). The assay can be described thus: protein microarray, purified IgG, trimeric HA.
For assay [15], the target named is recombinant soluble homotrimeric HA of A/duck/Yangzhou/02/05 (H8N4) (Influenza A virus A/duck/Yangzhou/02/2005(H8N4)). The assay can be described thus: HA microarray, BCC supernatant.
In assay [16] the target is recombinant soluble homotrimeric HA of A/California/4/09 (H1N1) (Influenza A virus A/California/04/2009(H1N1)). The assay can be described thus: HA microarray, BCC supernatant.
Assay [17] concerns the target recombinant soluble homotrimeric HA of A/Indonesia/5/05 (H5N1) (Influenza A virus A/Indonesia/5/2005(H5N1)). The assay can be described thus: HA microarray, BCC supernatant.
In assay [18] the target is recombinant soluble homotrimeric HA of A/Japan/305/57 (H2N2) (Influenza A virus A/Japan/305/1957(H2N2)). The assay can be described thus: HA microarray, BCC supernatant.
For assay [19], the target named is recombinant soluble homotrimeric HA of A/northern shoveler/California/HKWF115/07 (H6) (Influenza A virus A/northern shoveler/California/HKWF115/2007(H6N1)). The assay can be described thus: HA microarray, BCC supernatant.
Assay [20] has as its target recombinant soluble homotrimeric HA of A/Netherlands/219/03 (H7N7) (Influenza A virus A/Netherlands/219/03(H7N7)). The assay can be described thus: HA microarray, BCC supernatant.
The target of assay [21] is recombinant soluble homotrimeric HA of A/Vietnam/1203/04 (H5N1) (Influenza A virus A/VietNam/1203/2004(H5N1)). The assay can be described thus: HA microarray, BCC supernatant.
For assay [22], the target named is recombinant soluble homotrimeric HA of A/Hong Kong/2108/03 (H9N2) (Influenza A virus A/HK/2108/2003(H9N2)). The assay can be described thus: HA microarray, BCC supernatant.
The target of assay [23] is recombinant soluble homotrimeric HA of A/Anhui/1/05 (H5N1) (Influenza A virus A/Anhui/1/2005(H5N1)). The assay can be described thus: HA microarray, BCC supernatant.
For assay [24], the target named is recombinant soluble homotrimeric HA of A/Solomon Islands/3/06 (H1N1) (Influenza A virus A/Solomon Islands/3/2006(H1N1)). The assay can be described thus: HA microarray, BCC supernatant.
The target in assay [25] is recombinant soluble homotrimeric HA of A/chicken/Vietnam/NCVD-016/08 (H5N1) (Influenza A virus A/chicken/Vietnam/NCVD-016/2008(H5N1)). The assay can be described thus: HA microarray, BCC supernatant.
The target of assay [26] is recombinant soluble homotrimeric HA of A/Wisconsin/67/05 (H3N2) (Influenza A virus A/Wisconsin/67/2005(H3N2)). The assay can be described thus: HA microarray, BCC supernatant.
Assay [27] addresses recombinant homotrimeric HA A/Wisconsin/67/05 H3N2 (Influenza A virus A/Wisconsin/67/2005(H3N2)). The assay can be described thus: protein microarray, purified IgG, trimeric HA.

B1: TCN-534 (5249_B02) (antibody, V domains shown)
VH: QVQLVQSGAEVKKPGSSVKVSCRESGGTFNGYTITWVRQAPGQGLEWMGGIIPMMGTVNYAQKLQGRVTITTDYFTKTAYMDLNNLRSEDTAMYYCVKIRYTGQQLLWGQGTLVTVSS
VL: DIQMTQSPSTLSASIGDRVTITCRASQSIASWLAWYQQKPGKAPKLLIYEAVNLESGVPSRFSGSGSGTDFTLTISSLQPDDFATYFCQHYGTISQTFGGGTKVEIK
With B1, the Trimeric HA Binding: RLU worked out at 13200 RLU in assay [1]; 19500 RLU in assay [2]; 29100 RLU in [3]; 20700 RLU in assay [4]; 9240 RLU in assay [5]; 918 RLU in assay [6]. Further, the Trimeric HA Binding: RLU is 1900 RLU in assay [7]; 3420 RLU in assay [8]; 172 RLU in assay [9]; 5170 RLU in [10]; 21700 RLU in assay [11]; 25900 RLU in assay [12]. Moreover, the Trimeric HA Binding: RLU in [13] turned out to be 18200 RLU; in assay [14] it was 11400 RLU; in [15] it was 46500 RLU; in assay [16], 30100 RLU; in assay [17], 46400 RLU; in [18], 50600 RLU. Moreover, the Trimeric HA Binding: RLU is 52400 RLU in assay [19]; 4340 RLU in assay [20]; 3440 RLU in assay [21]; 165 RLU in assay [22]; 6860 RLU in assay [23]; 44200 RLU in [24]. Also, the Trimeric HA Binding: RLU was found to be 56600 RLU in assay [25] and 7980 RLU in [26].

B2: TCN-546 (5089_L08) (antibody, V domains shown)
VH: QVQLQQWGAGLLKPSETLSLTCGVYGGSLSDYYWSWIRQPPGKGLEWIGEINHSGGTNYNPSLKRRVTISVDTSKKQFSLKMNSVTAADTAVYYCARGTDPDTEVYCRAGNCAAFDFWGQGTLVTVSS
VL: EIVLTQSPGTLSLSPGERATLSCRASHFVIGRAVAWYQQKPGQAPRLLIYGASSRATGIPDRFSGSGSGTDFTLTISRLETEDFAVFYCQHYGSSPRYAFGQGTKLEIK
B2: the Trimeric HA Binding: RLU in assay [1] worked out at 890 RLU; in assay [2], 147 RLU; in [3], 503 RLU; in assay [4], 277 RLU; in [5] it was 88 RLU; in [6], 505 RLU. Further, the Trimeric HA Binding: RLU in assay [7] amounted to 21400 RLU; in assay [8] it was 386 RLU; in [9] it was 307 RLU; in assay [27], 25500 RLU; in [10], 207 RLU; in [12], 1200 RLU. Besides, the Trimeric HA Binding: RLU is 11200 RLU in [13]; 487 RLU in assay [15]; 350 RLU in [16]; 18400 RLU in assay [17]; 520 RLU in assay [18]; 1450 RLU in [20]. In addition, the Trimeric HA Binding: RLU in assay [21] turned out to be 349 RLU; in [22] it was 13000 RLU; in assay [23] it was 2040 RLU; in [25] it was 421 RLU; in assay [26] it was 30200 RLU.

B3: TCN-523 (5248_A17) (antibody, V domains shown)
VH: QVQLVQSGAEVKKPGSSVKVSCKASGGSFSNYAFSWVRQAPGQGLEWMGGTIPLLGTTNYAQKFQGRVTISADQFTSTAYMELGSLRSEDTAVYYCTRRKMTTAFDSWGQGTLVTVSS
VL: QPVLTQPPSASASLGASVTLTCTLSSAYSNYKVDWYQQRPGKGPRFVMRVGTGGIVGSKGDGIPDRFSVLGSGLNRYLTIKNIQEEDESDYHCGADHGSGSNFVSPYVFGGGTKLTVL
Turning to B3, the Trimeric HA Binding: RLU in assay [1] amounted to 5810 RLU; in [2] it was 16900 RLU; in assay [3] it was 15300 RLU; in assay [4], 19500 RLU; in assay [5], 9720 RLU; in [6] it was 2130 RLU. Further, the Trimeric HA Binding: RLU was 7240 RLU in assay [7]; 163 RLU in assay [9]; 4960 RLU in assay [10]; 3370 RLU in assay [11]; 20000 RLU in assay [12]; 21300 RLU in assay [13]. Besides, the Trimeric HA Binding: RLU in assay [14] amounted to 5130 RLU; in assay [16], 34700 RLU; in assay [17], 45800 RLU; in assay [18], 5110 RLU; in assay [19] it was 46900 RLU; in assay [20], 2340 RLU. The Trimeric HA Binding: RLU in [21] was found to be 3380 RLU; in [22], 189 RLU; in assay [23] it was 5700 RLU; in assay [24] it was 37900 RLU; in assay [25], 48900 RLU.

B4: TCN-538 (3206_O17) (antibody, V domains shown)
VH: QITLKESGPTLVKPTQTLTLTCVFSGFSLSITGVRVGWIRQPPGKALEWLALISWDDEKHYSPSLQSRLTITKDTSKNQVVLTMTNLDPVDTATYYCARSTDRGHVLRYFGWMLPGDAFDVWGQGTMVTVSS
VL: DIVMTQSPDFLPVSLGERATINCKSSQRVLYSSNNKNYLAWYQLKPGQPPKLIIYWASTRESGVPDRFSGSGSGTEFTLTISSLQAEDVAVYYCQQYYSRPYTFGQGTKLEIK
Take B4: the Trimeric HA Binding: RLU was 7080 RLU in assay [1]; 7450 RLU in [2]; 20500 RLU in [3]; 4810 RLU in assay [4]; 6770 RLU in assay [5]; 1270 RLU in assay [6]. Also, the Trimeric HA Binding: RLU in [8] came to 446 RLU; in assay [9], 172 RLU; in assay [10], 1060 RLU; in assay [11], 11400 RLU; in assay [12] it was 14000 RLU; in assay [13], 7290 RLU. For the same molecule, the Trimeric HA Binding: RLU in assay [14] was 9740 RLU; in assay [15], 6120 RLU; in [16] it was 13800 RLU; in [17] it was 26400 RLU; in [18] it was 43000 RLU; in assay [19] it was 17400 RLU. For the same molecule, the Trimeric HA Binding: RLU came to 60 RLU in assay [21]; 109 RLU in [22]; 689 RLU in assay [23]; 33200 RLU in [24]; 37300 RLU in assay [25]; 6900 RLU in assay [26].

The record behind these values is patent publication US20150086555A1.
